Experimental data reported in paper PMC9127186, “Molecular Basis Underlying Hepatobiliary and Renal Excretion of Phenolic Acids of Salvia miltiorrhiza Roots (Danshen)” (Frontiers in Pharmacology, 2022).
One block for each molecule: values may come before it. Where a SMILES comes first, the peptide text is derived from it. [ ]: non-standard residue; d: D form. Sar = CNCC(=O)O

Columns and labels:
human PEPT1 = biological target: T1, human PEPT1 (Homo sapiens, UniProt P46059); experiment: Cellular transport assay, HEK-293 cells expressing human PEPT1; details: positive substrate 20 μM, 10 min; human transporter printed PEPE1
T1 sequence (P46059 1-708): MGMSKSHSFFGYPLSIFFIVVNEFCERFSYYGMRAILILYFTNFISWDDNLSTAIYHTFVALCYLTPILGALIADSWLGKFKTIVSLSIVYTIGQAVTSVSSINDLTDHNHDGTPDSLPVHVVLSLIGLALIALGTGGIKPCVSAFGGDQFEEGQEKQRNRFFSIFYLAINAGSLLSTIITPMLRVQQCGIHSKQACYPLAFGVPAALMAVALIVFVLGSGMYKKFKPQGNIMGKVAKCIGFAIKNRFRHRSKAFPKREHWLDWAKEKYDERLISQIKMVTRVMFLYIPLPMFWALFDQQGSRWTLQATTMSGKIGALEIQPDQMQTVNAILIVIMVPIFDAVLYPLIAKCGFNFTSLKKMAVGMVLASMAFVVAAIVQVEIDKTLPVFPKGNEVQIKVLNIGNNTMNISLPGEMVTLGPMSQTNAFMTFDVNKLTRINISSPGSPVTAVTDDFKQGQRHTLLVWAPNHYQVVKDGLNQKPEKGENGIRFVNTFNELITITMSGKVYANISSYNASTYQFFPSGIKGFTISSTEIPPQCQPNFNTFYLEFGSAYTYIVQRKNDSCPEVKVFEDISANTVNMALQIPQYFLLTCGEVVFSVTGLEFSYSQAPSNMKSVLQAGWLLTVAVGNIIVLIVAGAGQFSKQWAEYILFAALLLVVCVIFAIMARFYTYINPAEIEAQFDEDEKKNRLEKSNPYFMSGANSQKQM

rat Pept1 = biological target: T2, rat Pept1 (Rattus norvegicus, UniProt P51574); experiment: Cellular transport assay, HEK-293 cells expressing rat Pept1; details: positive substrate 20 μM, 10 min; rat Pept1
T2 sequence (P51574 1-710): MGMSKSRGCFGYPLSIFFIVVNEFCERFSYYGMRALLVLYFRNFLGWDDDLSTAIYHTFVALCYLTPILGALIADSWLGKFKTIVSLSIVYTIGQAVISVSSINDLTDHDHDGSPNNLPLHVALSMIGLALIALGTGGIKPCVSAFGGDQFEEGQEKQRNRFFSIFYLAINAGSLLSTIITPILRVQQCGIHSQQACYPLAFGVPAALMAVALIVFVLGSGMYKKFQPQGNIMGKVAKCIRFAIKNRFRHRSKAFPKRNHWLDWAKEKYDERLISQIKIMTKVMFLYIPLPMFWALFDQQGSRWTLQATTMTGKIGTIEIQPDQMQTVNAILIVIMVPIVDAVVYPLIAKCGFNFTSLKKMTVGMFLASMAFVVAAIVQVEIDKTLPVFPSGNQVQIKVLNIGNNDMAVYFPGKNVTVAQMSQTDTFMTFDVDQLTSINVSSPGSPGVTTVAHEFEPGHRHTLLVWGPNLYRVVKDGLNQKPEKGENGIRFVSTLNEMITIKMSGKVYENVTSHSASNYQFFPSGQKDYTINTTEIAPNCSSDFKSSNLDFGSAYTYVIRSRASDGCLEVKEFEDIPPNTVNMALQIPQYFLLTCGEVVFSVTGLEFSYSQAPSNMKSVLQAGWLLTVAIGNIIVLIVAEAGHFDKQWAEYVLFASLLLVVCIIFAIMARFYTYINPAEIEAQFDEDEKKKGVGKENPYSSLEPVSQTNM

rat Pept2 = biological target: T3, rat Pept2 (Rattus norvegicus, UniProt Q63424); experiment: Cellular transport assay, HEK-293 cells expressing rat Pept2; details: positive substrate 20 μM, 10 min; rat Pept2
T3 sequence (Q63424 1-729): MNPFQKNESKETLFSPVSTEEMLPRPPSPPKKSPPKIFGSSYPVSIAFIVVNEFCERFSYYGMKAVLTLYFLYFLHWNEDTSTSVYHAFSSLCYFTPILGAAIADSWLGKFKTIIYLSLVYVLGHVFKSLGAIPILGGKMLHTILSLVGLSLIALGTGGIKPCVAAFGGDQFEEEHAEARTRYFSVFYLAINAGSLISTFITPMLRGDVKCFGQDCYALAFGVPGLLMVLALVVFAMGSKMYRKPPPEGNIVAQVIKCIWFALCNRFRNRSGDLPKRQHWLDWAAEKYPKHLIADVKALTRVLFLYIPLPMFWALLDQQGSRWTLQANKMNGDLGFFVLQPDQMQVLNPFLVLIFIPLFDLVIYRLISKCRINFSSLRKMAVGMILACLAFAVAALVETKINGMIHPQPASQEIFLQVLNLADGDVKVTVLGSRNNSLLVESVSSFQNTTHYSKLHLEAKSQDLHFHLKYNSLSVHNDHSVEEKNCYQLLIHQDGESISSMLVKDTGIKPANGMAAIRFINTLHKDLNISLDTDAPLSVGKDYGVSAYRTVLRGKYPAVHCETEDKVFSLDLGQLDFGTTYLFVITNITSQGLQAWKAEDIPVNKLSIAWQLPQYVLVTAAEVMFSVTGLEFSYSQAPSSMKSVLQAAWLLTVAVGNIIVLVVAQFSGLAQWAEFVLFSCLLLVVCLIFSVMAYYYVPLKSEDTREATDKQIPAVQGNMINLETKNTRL

human PEPT2 = biological target: T4, human PEPT2 (Homo sapiens, UniProt Q16348); experiment: Cellular transport assay, HEK-293 cells expressing human PEPT2; details: positive substrate 20 μM, 10 min; human PEPT2
T4 sequence (Q16348 1-729): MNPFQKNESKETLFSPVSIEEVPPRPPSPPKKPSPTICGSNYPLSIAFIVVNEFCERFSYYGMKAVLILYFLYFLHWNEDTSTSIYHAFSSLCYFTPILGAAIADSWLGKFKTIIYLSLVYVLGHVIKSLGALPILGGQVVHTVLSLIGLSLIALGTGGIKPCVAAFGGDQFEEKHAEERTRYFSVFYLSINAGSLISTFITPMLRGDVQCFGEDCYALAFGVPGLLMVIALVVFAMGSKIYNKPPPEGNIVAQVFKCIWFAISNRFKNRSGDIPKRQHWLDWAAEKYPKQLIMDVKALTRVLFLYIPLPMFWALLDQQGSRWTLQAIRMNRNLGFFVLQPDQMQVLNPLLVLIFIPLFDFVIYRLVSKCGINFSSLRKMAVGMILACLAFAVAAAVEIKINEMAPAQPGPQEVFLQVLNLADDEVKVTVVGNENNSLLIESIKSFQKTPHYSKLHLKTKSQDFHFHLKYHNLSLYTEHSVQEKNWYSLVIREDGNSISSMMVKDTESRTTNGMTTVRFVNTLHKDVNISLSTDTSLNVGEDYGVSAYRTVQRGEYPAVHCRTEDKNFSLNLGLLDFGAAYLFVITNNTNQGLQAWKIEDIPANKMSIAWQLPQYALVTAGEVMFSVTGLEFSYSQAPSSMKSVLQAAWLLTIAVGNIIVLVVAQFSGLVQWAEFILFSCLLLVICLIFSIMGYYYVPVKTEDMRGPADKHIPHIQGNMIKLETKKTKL

[1] = substrate: O=C(O)Cc1c(/C=C/C(=O)OC(Cc2ccc(O)c(O)c2)C(=O)O)ccc(O)c1O; experiment: cells, lysate or membranes named; details: 5 min incubation, concentrations in Table 1, 37.0 °C
[2] = substrate: O=C(/C=C/c1ccc(O)c(O)c1)O[C@H](Cc1ccc(O)c(O)c1)C(=O)O; experiment: cells, lysate or membranes named; details: 5 min incubation, concentrations in Table 1, 37.0 °C
[3] = substrate: O=C(/C=C/c1ccc(O)c2c1[C@H](C(=O)O)[C@@H](c1ccc(O)c(O)c1)O2)O[C@H](Cc1ccc(O)c(O)c1)C(=O)O; experiment: cells, lysate or membranes named; details: 5 min incubation, concentrations in Table 1, 37.0 °C
[4] = substrate: O=C(/C=C/c1ccc(O)c(O)c1/C=C/c1ccc(O)c(O)c1)O[C@H](Cc1ccc(O)c(O)c1)C(=O)O; experiment: cells, lysate or membranes named; details: other: rat hepatic sinusoidal uptake Oatp1b2; 5 min incubation, concentrations in Table 1; 37.0 °C
[5] = other: human hepatic sinusoidal uptake OATP1B1
[6] = other: rat hepatic sinusoidal uptake Oatp1b2

TransportTC/TransportMC ratio, positive substrate (human PEPT1): 126 ± 31 (GS) | TransportTC/TransportMC ratio, positive substrate (rat Pept1): 90.1 ± 10.4 (GS) | TransportTC/TransportMC ratio, positive substrate (rat Pept2): 101 ± 19 (GS) | TransportTC/TransportMC ratio, positive substrate (human PEPT2): 360 ± 49 (GS)
Molecule: CN(CC(=O)O)C(=O)CN [GS, glycylsarcosine, reference compound] (H-Gly-[Sar]-OH)

B1: human OATP1B1 (Homo sapiens) (protein)
chain: MDQNQHLNKTAEAQPSENKKTRYCNGLKMFLAALSLSFIAKTLGAIIMKSSIIHIERRFEISSSLVGFIDGSFEIGNLLVIVFVSYFGSKLHRPKLIGIGCFIMGIGGVLTALPHFFMGYYRYSKETNINSSENSTSTLSTCLINQILSLNRASPEIVGKGCLKESGSYMWIYVFMGNMLRGIGETPIVPLGLSYIDDFAKEGHSSLYLGILNAIAMIGPIIGFTLGSLFSKMYVDIGYVDLSTIRITPTDSRWVGAWWLNFLVSGLFSIISSIPFFFLPQTPNKPQKERKASLSLHVLETNDEKDQTANLTNQGKNITKNVTGFFQSFKSILTNPLYVMFVLLTLLQVSSYIGAFTYVFKYVEQQYGQPSSKANILLGVITIPIFASGMFLGGYIIKKFKLNTVGIAKFSCFTAVMSLSFYLLYFFILCENKSVAGLTMTYDGNNPVTSHRDVPLSYCNSDCNCDESQWEPVCGNNGITYISPCLAGCKSSSGNKKPIVFYNCSCLEVTGLQNRNYSAHLGECPRDDACTRKFYFFVAIQVLNLFFSALGGTSHVMLIVKIVQPELKSLALGFHSMVIRALGGILAPIYFGALIDTTCIKWSTNNCGTRGSCRTYNSTSFSRVYLGLSSMLRVSSLVLYIILIYAMKKKYQEKDINASENGSVMDEANLESLNKNKHFVPSAGADSETHC
Vmax [1, 5]: 8.93e-05 µmol/min/mg | Vmax/Km [1, 5]: 0.22 µL/min/mg | Vmax [2, 5]: 9.81e-05 µmol/min/mg | Vmax/Km [2, 5]: 0.07 µL/min/mg | Vmax [3, 5]: 2.7e-05 µmol/min/mg | Vmax/Km [3, 5]: 0.06 µL/min/mg

B2: rat Oatp1b2 (Rattus norvegicus) (protein)
chain: MDHTQQSRKAAEAQPSRSKQTRFCDGFKLFLAALSFSYICKALGGVVMKSSITQIERRFDIPSSISGLIDGGFEIGNLLVIVFVSYFGSKLHRPKLIGIGCFIMGIGSILTALPHFFMGYYKYAKENDIGSLGNSTLTCFINQMTSPTGPSPEIVEKGCEKGLKSHMWIYVLMGNMLRGIGETPIVPLGISYLDDFAKEGHTSMHLGTLHTIAMIGPILGFIMSSVFAKIYVDVGYVDLNSVRITPNDARWVGAWWLSFIVNGLLCITSSIPFFFLPKIPKRSQEERKNSVSLHAPKTDEEKKHMTNLTKQEEQDPSNMTGFLRSLRSILTNEIYVIFLILTLLQVSGFIGSFTYLFKFIEQQFGRTASQANFLLGIITIPTMATAMFLGGYIVKKFKLTSVGIAKFVFFTSSVAYAFQFLYFPLLCENKPFAGLTLTYDGMNPVDSHIDVPLSYCNSDCSCDKNQWEPICGENGVTYISPCLAGCKSFRGDKKPNNTEFYDCSCISNSGNNSAHLGECPRYKCKTNYYFYIILQVTVSFFTAMGSPSLILILMKSVQPELKSLAMGFHSLIIRALGGILAPIYYGAFIDRTCIKWSVTSCGKRGACRLYNSRLFGFSYLGLNLALKTPPLFLYVVLIYFTKRKYKRNDNKTLENGRQFTDEGNPDSVNKNGYYCVPYDEQSNETPL
Vmax [1, 6]: 0.000572 µmol/min/mg | Vmax/Km [1, 6]: 1.23 µL/min/mg | Vmax [2, 6]: 0.000159 µmol/min/mg | Vmax/Km [2, 6]: 0.08 µL/min/mg | Vmax [4]: 1.92e-05 µmol/min/mg | Vmax/Km [4]: 0.38 µL/min/mg | Vmax [3, 6]: 3.77e-05 µmol/min/mg | Vmax/Km [3, 6]: 0.41 µL/min/mg
